Values joined by “and” are separate entries in the source; they are usually repeats but may differ in a detail not shown here. Equal entries are not always repeated.
Tests used:
[1] = target: O432-17(–) nanoparticle assembled with Fc (human); assay: SEC; in vitro packaging: 1x tetramer, 1x Fc, 1.1x negatively charged trimeric plug, 1x pos36GFP, dialysed 16 h at 25 °C into 25 mM Tris pH 8.0, 200 mM NaCl; Superose 6 10/300 GL; absorbance at 280 and 488 nm
[2] = target: Fc of human IgG1 (human); assay: cryo-EM structure; pre-SEC O432-17-Fc sample, 0.5 mg/ml in 25 mM Tris pH 8.0, 150 mM NaCl; octahedral symmetry applied; design model refined into the map

Row | stoichiometry N [2] | Substance | stoichiometry N (pos36GFP per nanoparticle) [1]
1 |  | positively charged GFP (pos36GFP) | 9 and 10
2 | 2 | Fc of human IgG1 (domain or fragment) | 

Reference: PMC11402598
